PMC7954794 (2021)

B1: S. cerevisiae Abp1 (full length; SH3 domain 535-592 mutated) / Hua2 (parent complex)
chain 1: MALEPIDYTTHSREIDAEYLKIVRGSDPDTTWLIISPNAKKEYEPESTGSSFHDFLQLFDETKVQYGLARVSPPGSDVEKIIIIGWCPDSAPLKTRASFAANFAAVANNLFKGYHVQVTARDEDDLDENELLMKISNAAGARYSIQTSSKQQGKASTPPVKKSFTPSKSPAPVSKKEPVKTPSPAPAAKISSRVNDNNDDDDWNEPELKERDFDQAPLKPNQSSYKPIGKIDLQKVIAEEKAKEDPRLVQKPTAAGSKIDPSSDIANLKNESKLKRDSEFNSFLGTTKPPSMTESSLKNDDDKVIKGFRNEKSPAQLWAERKAKQNSGNAETKAEAPKPEVPEDEPEGEPDVKDLKSKFEGLAASEKEEEEMENKFAPPPKKSEPTIISPKPFSKPQEPVKAEEAEQPKTDYKKIGNPLPGMHIEADNEEEPEENDDDWDDDEDEAAQPPLPSRNVASGAPVQKEEPEQEEIAPSLPSRNSIPAPKQEEAPEQAPEEEIEEEAEEAAPQLPSRSSAAPPPPPRRATPEKKPKENPWATAEYDYDAAEDNELTFVENDKIINIEFVDDDWWLGELEKDGSKGLFPSNYVSLGN
chain 2: MQQTKFGKMYLDHDSVVEYSEDEIVEADRITLGYKKRLSMIENQMRHLLEDFSLDVQQIEPILADLQKYYDAFLQLLQKRNKSLQCKRSTHQPVPSPMNSQTSTNAKVNLSGKLMKFQLNSVQKFDEENILRILQNKIEFEHYFQIDKGKKQKVLLLAVYQCLNGPTRLHKVLNIEGIIHNNSIRTILGKQVSSSKWTVFLYDVKLVLLAHRQDVPNLETSKMIVRYGDLFPCALYFKDHTAY

Variants of: B1
Assay: DHFR protein-fragment complementation in yeast (Abp1-DHFR F[1,2] x partner-DHFR F[3]), deep mutational scanning, second methotrexate selection vs reference; S. cerevisiae, DHFR-PCA selection in liquid with methotrexate at 30 C, two 72 h selections (the score uses the second); reference = the pre-selection culture

screen value | Variant
0.719 DMS score: mean over two replicates of log2(f_test/f_ref + 0.5)/ln 2, minus the synonymous-codon median (not a log2 … | chain 1 MALEPIDYTTHSREIDAEYLKIVRGSDPDTTWLIISPNAKKEYEPESTGSSFHDFLQLFDETKVQYGLARVSPPGSDVEKIIIIGWCPDSAPLKTRASFAANFAAVANNLFKGYHVQVTARDEDDLDENELLMKISNAAGARYSIQTSSKQQGKASTPPVKKSFTPSKSPAPVSKKEPVKTPSPAPAAKISSRVNDNNDDDDWNEPELKERDFDQAPLKPNQSSYKPIGKIDLQKVIAEEKAKEDPRLVQKPTAAGSKIDPSSDIANLKNESKLKRDSEFNSFLGTTKPPSMTESSLKNDDDKVIKGFRNEKSPAQLWAERKAKQNSGNAETKAEAPKPEVPEDEPEGEPDVKDLKSKFEGLAASEKEEEEMENKFAPPPKKSEPTIISPKPFSKPQEPVKAEEAEQPKTDYKKIGNPLPGMHIEADNEEEPEENDDDWDDDEDEAAQPPLPSRNVASGAPVQKEEPEQEEIAPSLPSRNSIPAPKQEEAPEQAPEEEIEEEAEEAAPQLPSRSSAAPPPPPRRATPEKKPKENPWATAEYDYDAAEDNELTFVENDRIINIEFVDDDWWLGELEKDGSKGLFPSNYVSLGN [chain 1 K558R]
-0.155 DMS score: mean over two replicates of log2(f_test/f_ref + 0.5)/ln 2, minus the synonymous-codon median (not a log2 … | chain 1 MALEPIDYTTHSREIDAEYLKIVRGSDPDTTWLIISPNAKKEYEPESTGSSFHDFLQLFDETKVQYGLARVSPPGSDVEKIIIIGWCPDSAPLKTRASFAANFAAVANNLFKGYHVQVTARDEDDLDENELLMKISNAAGARYSIQTSSKQQGKASTPPVKKSFTPSKSPAPVSKKEPVKTPSPAPAAKISSRVNDNNDDDDWNEPELKERDFDQAPLKPNQSSYKPIGKIDLQKVIAEEKAKEDPRLVQKPTAAGSKIDPSSDIANLKNESKLKRDSEFNSFLGTTKPPSMTESSLKNDDDKVIKGFRNEKSPAQLWAERKAKQNSGNAETKAEAPKPEVPEDEPEGEPDVKDLKSKFEGLAASEKEEEEMENKFAPPPKKSEPTIISPKPFSKPQEPVKAEEAEQPKTDYKKIGNPLPGMHIEADNEEEPEENDDDWDDDEDEAAQPPLPSRNVASGAPVQKEEPEQEEIAPSLPSRNSIPAPKQEEAPEQAPEEEIEEEAEEAAPQLPSRSSAAPPPPPRRATPEKKPKENPWATAEYDYDAAEDNELTFVENDKVINIEFVDDDWWLGELEKDGSKGLFPSNYVSLGN [chain 1 I559V]
-1.94 DMS score: mean over two replicates of log2(f_test/f_ref + 0.5)/ln 2, minus the synonymous-codon median (not a log2 … | chain 1 MALEPIDYTTHSREIDAEYLKIVRGSDPDTTWLIISPNAKKEYEPESTGSSFHDFLQLFDETKVQYGLARVSPPGSDVEKIIIIGWCPDSAPLKTRASFAANFAAVANNLFKGYHVQVTARDEDDLDENELLMKISNAAGARYSIQTSSKQQGKASTPPVKKSFTPSKSPAPVSKKEPVKTPSPAPAAKISSRVNDNNDDDDWNEPELKERDFDQAPLKPNQSSYKPIGKIDLQKVIAEEKAKEDPRLVQKPTAAGSKIDPSSDIANLKNESKLKRDSEFNSFLGTTKPPSMTESSLKNDDDKVIKGFRNEKSPAQLWAERKAKQNSGNAETKAEAPKPEVPEDEPEGEPDVKDLKSKFEGLAASEKEEEEMENKFAPPPKKSEPTIISPKPFSKPQEPVKAEEAEQPKTDYKKIGNPLPGMHIEADNEEEPEENDDDWDDDEDEAAQPPLPSRNVASGAPVQKEEPEQEEIAPSLPSRNSIPAPKQEEAPEQAPEEEIEEEAEEAAPQLPSRSSAAPPPPPRRATPEKKPKENPWATAGYDYDAAEDNELTFVENDKIINIEFVDDDWWLGELEKDGSKGLFPSNYVSLGN [chain 1 E540G]
-0.774 DMS score: mean over two replicates of log2(f_test/f_ref + 0.5)/ln 2, minus the synonymous-codon median (not a log2 … | chain 1 MALEPIDYTTHSREIDAEYLKIVRGSDPDTTWLIISPNAKKEYEPESTGSSFHDFLQLFDETKVQYGLARVSPPGSDVEKIIIIGWCPDSAPLKTRASFAANFAAVANNLFKGYHVQVTARDEDDLDENELLMKISNAAGARYSIQTSSKQQGKASTPPVKKSFTPSKSPAPVSKKEPVKTPSPAPAAKISSRVNDNNDDDDWNEPELKERDFDQAPLKPNQSSYKPIGKIDLQKVIAEEKAKEDPRLVQKPTAAGSKIDPSSDIANLKNESKLKRDSEFNSFLGTTKPPSMTESSLKNDDDKVIKGFRNEKSPAQLWAERKAKQNSGNAETKAEAPKPEVPEDEPEGEPDVKDLKSKFEGLAASEKEEEEMENKFAPPPKKSEPTIISPKPFSKPQEPVKAEEAEQPKTDYKKIGNPLPGMHIEADNEEEPEENDDDWDDDEDEAAQPPLPSRNVASGAPVQKEEPEQEEIAPSLPSRNSIPAPKQEEAPEQAPEEEIEEEAEEAAPQLPSRSSAAPPPPPRRATPEKKPKENPWATAEYDYDAAEDPELTFVENDKIINIEFVDDDWWLGELEKDGSKGLFPSNYVSLGN [chain 1 N549P]
0.039 DMS score: mean over two replicates of log2(f_test/f_ref + 0.5)/ln 2, minus the synonymous-codon median (not a log2 … | chain 1 MALEPIDYTTHSREIDAEYLKIVRGSDPDTTWLIISPNAKKEYEPESTGSSFHDFLQLFDETKVQYGLARVSPPGSDVEKIIIIGWCPDSAPLKTRASFAANFAAVANNLFKGYHVQVTARDEDDLDENELLMKISNAAGARYSIQTSSKQQGKASTPPVKKSFTPSKSPAPVSKKEPVKTPSPAPAAKISSRVNDNNDDDDWNEPELKERDFDQAPLKPNQSSYKPIGKIDLQKVIAEEKAKEDPRLVQKPTAAGSKIDPSSDIANLKNESKLKRDSEFNSFLGTTKPPSMTESSLKNDDDKVIKGFRNEKSPAQLWAERKAKQNSGNAETKAEAPKPEVPEDEPEGEPDVKDLKSKFEGLAASEKEEEEMENKFAPPPKKSEPTIISPKPFSKPQEPVKAEEAEQPKTDYKKIGNPLPGMHIEADNEEEPEENDDDWDDDEDEAAQPPLPSRNVASGAPVQKEEPEQEEIAPSLPSRNSIPAPKQEEAPEQAPEEEIEEEAEEAAPQLPSRSSAAPPPPPRRATPEKKPKENPWATAEYDYDAAEDNELTFVENDKIINIEFVDDDWWLGELEKDGSKGFFPSNYVSLGN [chain 1 L582F]
